Test results taken from article PMC8616905.
Where two headings read alike, the source gives them in different places.

Experiments:
[1] = target: Ago2 (guide-loaded) (human) (UniProt Q9UKV8); test: EMSA
[2] = target: Ago2 (guide-loaded) (human) (UniProt Q9UKV8); test: koff measurement

Chain of Ago2 (guide-loaded) (human) (Q9UKV8 whole entry): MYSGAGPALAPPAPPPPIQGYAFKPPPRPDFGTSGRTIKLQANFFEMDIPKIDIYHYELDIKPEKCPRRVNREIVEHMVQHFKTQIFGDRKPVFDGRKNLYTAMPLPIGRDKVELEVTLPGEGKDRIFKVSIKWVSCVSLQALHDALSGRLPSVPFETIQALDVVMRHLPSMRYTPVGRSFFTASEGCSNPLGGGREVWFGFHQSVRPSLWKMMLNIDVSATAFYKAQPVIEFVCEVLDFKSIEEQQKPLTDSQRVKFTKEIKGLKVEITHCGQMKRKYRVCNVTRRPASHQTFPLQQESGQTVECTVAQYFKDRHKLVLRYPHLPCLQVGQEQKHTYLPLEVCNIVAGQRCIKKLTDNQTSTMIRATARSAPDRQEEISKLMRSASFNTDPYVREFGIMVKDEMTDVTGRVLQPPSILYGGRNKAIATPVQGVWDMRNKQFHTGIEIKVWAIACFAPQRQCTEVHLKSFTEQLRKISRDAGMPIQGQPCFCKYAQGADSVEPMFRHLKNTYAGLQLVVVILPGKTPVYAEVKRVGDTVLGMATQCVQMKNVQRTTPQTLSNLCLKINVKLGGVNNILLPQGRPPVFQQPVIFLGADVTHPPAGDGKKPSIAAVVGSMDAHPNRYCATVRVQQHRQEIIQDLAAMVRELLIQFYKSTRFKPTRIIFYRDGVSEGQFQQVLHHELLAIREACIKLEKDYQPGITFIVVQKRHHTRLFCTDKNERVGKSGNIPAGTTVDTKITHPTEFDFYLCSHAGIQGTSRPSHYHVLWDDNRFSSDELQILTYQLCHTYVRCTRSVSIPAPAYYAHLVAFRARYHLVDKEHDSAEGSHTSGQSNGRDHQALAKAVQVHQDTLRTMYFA

HCV 5' UTR deltaSL1 + miR-122 guide
Kd [1]: 58 pM

Site-1 WT + miR-122 guide
binding signal (relative koff (reference)) [2]: 1

Site-1 deltaSL1 (A4 bridge) + miR-122 guide
koff fold change (fold slower koff than Site-1 WT) [2]: 6

Site-1 t9 abasic + miR-122 guide
koff fold change (fold slower koff than Site-1 WT) ([2]; abasic nucleotide at t9 (G21)): 3
